Molecular target: LDLRs
Assay: SPR

Substance: Tissue-type plasminogen activator (recombinant human tPA, Actilyse) (enzyme)
- Kd: 330 nM
